From patent US20210206880A1 (published 2021)

Experiments:
MbNb207^cHopQ [1] = biological target: T1, MbNb207^cHopQ; assay: co-crystal structure
T1 construct: also called cHopQNbGFP207; 58 kDa Megabody

MbNb207^cHopQ [2] = biological target: T1, MbNb207^cHopQ; assay: BLI (Octet), biotinylated MbNb207^cHopQ on streptavidin sensors

Row | Binder | binding result (MbNb207^cHopQ [1]) | binding result (MbNb207^cHopQ [2])
1 | Nb60 HopQ-specific Nanobody (VHH, also called cHopQ-specific Nanobody) VHH: QVQLQESGGGLVQPGGSLRLSCAASGFTFSRYAMSWVRQAPGKGPEWVSAINSPGGSTSYADSVKGRFTISRDNAKNTLYLQMNSLKPDDTAVYYCAKYERATEWGHTIVAVTPLLDGVHDYWGQGTQVTVSS | binds | –
2 | MbNb60^cYgjkE2 (designed binder, also called Mb^Nb60cYgjkQE2) QVQLVESGGGLVYKEETQSGLNNYARVVEKGQYDSLEIPAQVAASWESGRDDAAVFGFIDKEQLDKYVANGGKRSDWTVKFAENRSQDGTLLGYSLLQESVDQASYMYSDNHYLAEMATILGKPEEAKRYRQLAQQLADYINTCMFDPTTQFYYDVRIEDKPLANGCAGKPIVERGKGPEGWSPLFNGAATQANADAVVKVMLDPKEFNTFVPLGTAALTNPAFGADIYWRGRVWVDQFWFGLKGMERYGYRDDALKLADTFFRHAKGLTADGPIQENYNPLTGAQQGAPNFSWSAAHLYMLYNDFFRKQASGGGSGGGGSGGGGSGNADNYKNVINRTGAPQYMKDYDYDDHQRFNPFFDLGAWHGHLLPDGPNTMGGFPGVALLTEEYINFMASNFDRLTVWQDGKKVDFTLEAYSIPGALVQKLTAKDVQVEMTLRFATPRTSLLETKITSNKPLDLVWDGELLEKLEAKEGKPLSDKTIAGEYPDYQRKISATRDGLKVTFGKVRATWDLLTSGESEYQVHKSLPVQTEINGNRFTSKAHINGSTTLYTTYSHLLTAQEVSKEQMQIRDILARPAFYLTASQQRWEEYLKKGLTNPDATPEQTRVAVKAIETLNGNWRSPGGAVKFNTVTPSVTGRWFSGNQTWPWDTWKQAFAMAHFNPDIAKENIRAVFSWQIQPGDSVRPQDVGFVPDLIAWNLSPERGGDGGNWNERNTKPSLAAWSVMEVYNVTQDKTWVAEMYPKLVAYHDWWLRNRDHNGNGVPEYGATRDKAHNTESGEMLFTVKKDSLRLSCAASGFTFSRYAMSWVRQAPGKGPEWVSAINSPGGSTSYADSVKGRFTISRDNAKNTLYLQMNSLKPDDTAVYYCAKYERATEWGHTIVAVTPLLDGVHDYWGQGTQVTVSSHHHHHHEPEA | – | binds
3 | MbNb60^c7HopQ mut2 (N277K, T270R) (designed binder, also called MbNb60^cHopQmut2; MbNb60^c7HopQ N277K T270R) QVQLVESGGGLVQTKTTTSVIDTTNDAQNLLTQAQTIVNTLKDYCPILIAKSSSSNGGTNNANTPSWQTAGGGKNSCATFGAEFSAASDMINNAQKIVQETQQLSANQPKNITQPHNLNLNSPSSLTALAQKMLKNAQSQAEILKLANQVESDFNKLSSGHLKDYIGKCDASAISSANMTMQNQKNNWGNGCAGVEETQSLLKTSAADFNNQTPQINQAQNLANTLIQELGNNTYEQLSRLLTNDNGTNSKTSAQAINQAVNNLNERAKRLAGGTTKSPAYQATLLALRSVLGLWNSMGYAVICGGYTKSPGENNQKDFHYTDENGNGTTINCGGSTNSNGTHSYNGTNTLKADKNVSLSIEQYEKIHEAYQILSKALKQAGLAPLNSKGEKLEAHVTTSKYGSLRLSCAASGFTFSRYAMSWVRQAPGKGPEWVSAINSPGGSTSYADSVKGRFTISRDNAKNTLYLQMNSLKPDDTAVYYCAKYERATEWGHTIVAVTPLLDGVHDYWGQGTQVTVSSHHHHHHEPEA | – | binds
4 | MbNb60^c7HopQ mut3 (N277K, T270R, E197R) (designed binder, also called MbNb60^cHopQmut3; MbNb60^c7HopQ N277K T270R E197R) QVQLVESGGGLVQTKTTTSVIDTTNDAQNLLTQAQTIVNTLKDYCPILIAKSSSSNGGTNNANTPSWQTAGGGKNSCATFGAEFSAASDMINNAQKIVQETQQLSANQPKNITQPHNLNLNSPSSLTALAQKMLKNAQSQAEILKLANQVESDFNKLSSGHLKDYIGKCDASAISSANMTMQNQKNNWGNGCAGVERTQSLLKTSAADFNNQTPQINQAQNLANTLIQELGNNTYEQLSRLLTNDNGTNSKTSAQAINQAVNNLNERAKRLAGGTTKSPAYQATLLALRSVLGLWNSMGYAVICGGYTKSPGENNQKDFHYTDENGNGTTINCGGSTNSNGTHSYNGTNTLKADKNVSLSIEQYEKIHEAYQILSKALKQAGLAPLNSKGEKLEAHVTTSKYGSLRLSCAASGFTFSRYAMSWVRQAPGKGPEWVSAINSPGGSTSYADSVKGRFTISRDNAKNTLYLQMNSLKPDDTAVYYCAKYERATEWGHTIVAVTPLLDGVHDYWGQGTQVTVSSHHHHHHEPEA | – | binds
